{"source": "paper PMC8709496", "about": "“Highly Active Thermophilic L-Asparaginase from Melioribacter roseus Represents a Novel Large Group of Type II Bacterial L-Asparaginases from Chlorobi-Ignavibacteriae-Bacteroidetes Clade” (International Journal of Molecular Sciences, 2021)", "substrate": "NC(=O)C[C@H](N)C(=O)O", "assay": "purified protein", "assay_type": "biochemical, Melioribacter roseus", "details": "borate buffer 0.025 M, pH 9.3, 70 °C"}
{"protein": "MrAII (type II L-asparaginase from M. roseus) (Melioribacter roseus P3M-2) (protein, synthetic native gene (981 nt, printed as 327 aa) in pET-28a(+) NheI/SalI, E. coli BL21(DE3); Q-Sepharose purified) MKNILIIFTGGTFSMKIDRETNSAVPYYHGEELLKIIPEADKKANISVYEFGNYPGPHMTPELMLELSEIVKKYINQNDTDGIIITHGTDTLEETAYFLDLTVKTEKPIVVIGAMKTSSEPDWDGPKNLLDAISIINNPNSGNMGVLVCLNGEINAASEVTKTHTEDIETFHSLDFGSLGFVENDRVIFNRLPRKLETFETAKINSNVDLIKVYAGMNEKFFKFSADSGADGLVVEAMGVGNVPPKAFEGIKYVIEKGIPVVLVSRCPAGETLDIYGYEGAGKWLKKAGVIFSDYLNGQKARIKLIVCLGITNEIAKLRSMFEDEQ", "values": [{"measurement": "Km", "value": 1400, "unit": "µM"}]}
